Here are results for 14 molecules from patent publication US20220306762A1 (CRYSTAL BIOSCIENCE, published 2022).

What is called Kd is the concentration at which binding is half-saturated.

Positions count from the first letter of the chain named.

Assay [1] addresses T1, murine CD38 on transiently transfected Expi293 cells (Origene MC208001) (murine, UniProt P56528 1-304).
T1 construct: whole, on cells; also called Murine (FACs)
T1 sequence (looked up): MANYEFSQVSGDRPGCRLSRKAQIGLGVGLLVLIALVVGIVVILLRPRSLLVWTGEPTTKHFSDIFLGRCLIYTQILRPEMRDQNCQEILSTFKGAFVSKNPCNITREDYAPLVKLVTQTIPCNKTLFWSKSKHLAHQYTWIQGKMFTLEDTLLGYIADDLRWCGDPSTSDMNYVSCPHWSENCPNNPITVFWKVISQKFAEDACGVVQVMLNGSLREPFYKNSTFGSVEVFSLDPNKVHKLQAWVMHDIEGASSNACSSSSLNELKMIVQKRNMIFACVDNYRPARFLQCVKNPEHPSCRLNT
Nature of the assay: flow cytometry, transfected Expi293 cells.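 Note: antibody binding to Expi293 cells transiently expressing human or murine CD38, antibodies applied at 10 ug/ml for 60 min on ice, read by flow cytometry as percent gated cells.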

Assay [2] concerns the target T2, human CD38 on transiently transfected Expi293 cells (Origene #SC321273) (human, UniProt P28907 1-300).
T2 construct: whole, on cells; also called Human (FACs)
Nature of the assay: flow cytometry, transfected Expi293 cells.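 Note: antibody binding to Expi293 cells transiently expressing human or murine CD38, antibodies applied at 10 ug/ml for 60 min on ice, read by flow cytometry as percent gated cells.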

Assay [3] addresses T3, His-tagged cynomolgus monkey CD38 (ACRO Biosystems cat #CD8-05223) (cynomolgus monkey, UniProt Q5VAN0 43-301).
T3 construct: bought recombinant protein with His tag
Nature of the assay: ELISA, coated His-CD38. On the technique in general: ELISA stands for enzyme-linked immunosorbent assay.

Assay [4] addresses T4, His-tagged human CD38 (ACRO Biosystems cat #CD8-H5224) (human, UniProt P28907 43-300).
T4 construct: bought recombinant protein with His tag
Put plainly: ELISA, coated His-CD38.

For assay [5], the target named is T5, His-tagged mouse CD38 (ACRO Biosystems #CD8-M5223) (mouse, UniProt P56528 45-304).
T5 construct: bought recombinant protein with His tag; also called Murine
T5 sequence (looked up): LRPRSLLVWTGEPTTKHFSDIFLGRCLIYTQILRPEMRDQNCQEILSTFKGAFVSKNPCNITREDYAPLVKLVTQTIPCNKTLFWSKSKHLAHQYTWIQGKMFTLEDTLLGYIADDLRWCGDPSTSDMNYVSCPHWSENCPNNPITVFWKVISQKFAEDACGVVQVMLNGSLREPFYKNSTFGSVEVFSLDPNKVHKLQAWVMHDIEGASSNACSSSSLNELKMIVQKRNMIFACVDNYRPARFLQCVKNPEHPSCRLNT
Nature of the assay: ELISA, coated His-CD38.

Assay [6] concerns the target T3, His-tagged cynomolgus monkey CD38 (ACRO …). Put plainly: SPR, captured scFv-Fc, His-CD38 analyte.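 Note: SPR on a Carterra LSA, scFv-Fc captured by anti-human Fc on HC30M chip, His-tagged CD38 (human, mouse, cynomolgus) flowed as analyte in eight 1:2 steps from 400 nM.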 Background: SPR reads the build-up and loss of mass on a sensor chip optically.
The target in assay [7] is T4, His-tagged human CD38 (ACRO Biosystems …). Nature of the assay: SPR, captured scFv-Fc, His-CD38 analyte.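 Note: SPR on a Carterra LSA, scFv-Fc captured by anti-human Fc on HC30M chip, His-tagged CD38 (human, mouse, cynomolgus) flowed as analyte in eight 1:2 steps from 400 nM.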
Assay [8] addresses T5, His-tagged mouse CD38 (ACRO Biosystems …). Put plainly: SPR, captured scFv-Fc, His-CD38 analyte.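 Note: SPR on a Carterra LSA, scFv-Fc captured by anti-human Fc on HC30M chip, His-tagged CD38 (human, mouse, cynomolgus) flowed as analyte in eight 1:2 steps from 400 nM.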

B1: 40566p1.A7 (scFv, V domains shown)
VH: RELVESGGGVVRPGESLRLSCAASGFTFDNYDMTWVRQAPGEGLEWVSFISSRGTFTYYTDSVRGRFTISRDNSKNTLYLEMNSLRAEDTAIYYCAKDSGEYYFFDYWGLGTLVTVSS
VL: EIVMTQSPATLSVSPGERATFSCRASQSVNSKLAWYQQKPGQAPRLLIYGASRRATGIPDRFSGSGSGTEFTLTISSLQSEDFAVYYCQQYYDWPPLTFGGGTKVEIK
notes: tested as scFv-Fc supernatant
In the case of B1, the “FACs 10 ug/ml (percent gated)” value was 72.8% in assay [1] and 14.2% in assay [2]. Further, the “ELISA 1 ug/ml” value amounted to 1.85 in assay [3], 1.99 in assay [4] and 2.12 in assay [5]. For the same molecule, the Kd in assay [6] turned out to be 2.66 nM; in assay [7], 202000 nM; in assay [8], 1.31 nM.

B2: 40566p1.D2 (scFv, V domains shown)
VH: DVQLVESGGGVVRPGESLRLSCAASGFTFDNYDMTWVRQAPGEGLEWVSFISSRGTFTYYTDSVKGRFTISRDNSKNTLYLQMNSLRAEDTAIYYCTKDSGEYYFFDYWGLGTLVTVSS
VL: B1 VL
notes: tested as scFv-Fc supernatant
Regarding B2, the “FACs 10 ug/ml (percent gated)” value in assay [1] stood at 71.2%; in assay [2], 20.1%. Moreover, the “ELISA 1 ug/ml” value came out at 1.83 in assay [3], 1.96 in assay [4] and 1.74 in assay [5]. For the same molecule, the Kd in assay [6] came out at 29.8 nM; in assay [7], 11.8 nM; in assay [8], 1.74 nM.

B3: 40566p1.B3 (scFv, V domains shown)
VH: B2 VH with K65R, Q82E, T97A
VL: B1 VL
notes: tested as scFv-Fc supernatant
As to B3, the “FACs 10 ug/ml (percent gated)” value in assay [1] was found to be 74.1%; in assay [2] it was 21.1%. For the same molecule, the “ELISA 1 ug/ml” value in assay [3] was determined as 1.81; in assay [4] it was 1.89; in assay [5] it was 1.93. Moreover, the dissociation constant Kd turned out to be 5.68 nM in assay [6], 43800 nM in assay [7] and 1.32 nM in assay [8].

B4: 40566p1.B11 (scFv, V domains shown)
VH: B2 VH with V11L, T97A
VL: B1 VL with G64E, Y92H
notes: tested as scFv-Fc supernatant
As to B4, the “FACs 10 ug/ml (percent gated)” value is 49.9% in assay [1] and 6.05% in assay [2]. The “ELISA 1 ug/ml” value in assay [3] was 1.44; in assay [4], 1.43; in assay [5] it was 1.24. The figures for the Kd in assay [6], in assay [7] and in assay [8] were 549 nM, 104 nM and 224 nM, respectively.

B5: 40566p1.A8 (scFv, V domains shown)
VH: B2 VH with T97A
VL: B1 VL
notes: tested as scFv-Fc supernatant
In the case of B5, the results for the “FACs 10 ug/ml (percent gated)” value in assay [1] and in assay [2] were 70.8% and 17.8%, respectively. The figures for the “ELISA 1 ug/ml” value in assay [3], in assay [4] and in assay [5] were 1.9, 1.87 and 1.9, respectively. The figures for the Kd in assay [7] and in assay [8] were 0.872 nM and 5.81 nM, respectively.

B6: 40566p1.C11 (scFv, V domains shown)
VH: B2 VH
VL: B1 VL with M4L, A9G, V13L, F21L, S28T, N30G, Y49F, G50S, R53S, D60A
notes: tested as scFv-Fc supernatant
For the molecule B6, the results for the “FACs 10 ug/ml (percent gated)” value in assay [1] and in assay [2] were 64.5% and 11.9%, respectively. The “ELISA 1 ug/ml” value stood at 1.7 in assay [3], 1.87 in assay [4] and 1.6 in assay [5]. In addition, in assay [8], binding was put at a Kd of 1.97 nM.

B7: 40566p1.B12 (scFv, V domains shown)
VH: B2 VH with T56I, T61A, T97A
VL: B1 VL
notes: tested as scFv-Fc supernatant
Turning to B7, the entries for the “FACs 10 ug/ml (percent gated)” value in assay [1] and in assay [2] were 57.7% and 8.31%, respectively. Further, the figures for the “ELISA 1 ug/ml” value in assay [3], in assay [4] and in assay [5] were 1.6, 1.72 and 1.62, respectively. Moreover, the dissociation constant Kd in assay [7] stood at 470000 nM; in assay [8] it was 25.6 nM.

B8: 40566p1.G12 (scFv, V domains shown)
VH: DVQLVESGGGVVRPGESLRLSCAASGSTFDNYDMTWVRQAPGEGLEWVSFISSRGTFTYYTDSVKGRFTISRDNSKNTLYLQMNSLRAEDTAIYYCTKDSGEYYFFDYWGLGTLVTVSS
VL: B1 VL with G50D
notes: tested as scFv-Fc supernatant
Turning to B8, the “FACs 10 ug/ml (percent gated)” value in assay [1] stood at 68.5%; in assay [2] it was 7.52%. Further, the figures for the “ELISA 1 ug/ml” value in assay [3], in assay [4] and in assay [5] were 1.62, 1.58 and 1.65, respectively. In assay [8], binding was characterised by a dissociation constant (Kd) of 2.07 nM.

B9: 40566p1.C9 (scFv, V domains shown)
VH: B2 VH
VL: B1 VL with I2T, G50D, Y87F
notes: tested as scFv-Fc supernatant
For B9, the “FACs 10 ug/ml (percent gated)” value in assay [1] came out at 76.9%; in assay [2], 31.3%. In addition, the “ELISA 1 ug/ml” value in assay [3] came to 1.66; in assay [4], 1.83; in assay [5] it was 1.97. In addition, the Kd in assay [6] is 4.67 nM; in assay [7], 0.269 nM; in assay [8] it was 0.351 nM.

B10: 40566p1.G9 (scFv, V domains shown)
VH: B2 VH with T61A, T97A
VL: B1 VL
notes: tested as scFv-Fc supernatant
Take B10: the “FACs 10 ug/ml (percent gated)” value in assay [1] was 70.7%; in assay [2] it was 17.8%. For the same molecule, the results for the “ELISA 1 ug/ml” value in assay [3], in assay [4] and in assay [5] were 1.86, 1.82 and 1.93, respectively. In addition, binding in assay [8] was put at a Kd of 4.8 nM.

B11: 40566p1.F1 (scFv, V domains shown)
VH: B2 VH
VL: B1 VL with I2T, S31G, G50D
notes: tested as scFv-Fc supernatant; also called 40566p1.Fl
B11: the “FACs 10 ug/ml (percent gated)” value came out at 76% in assay [1] and 32% in assay [2]. The “ELISA 1 ug/ml” value in assay [3] was 1.95; in assay [4], 1.83; in assay [5], 2.17. The Kd in assay [6] came out at 3880 nM; in assay [8], 0.375 nM.

B12: 40566p1.D12 (scFv, V domains shown)
VH: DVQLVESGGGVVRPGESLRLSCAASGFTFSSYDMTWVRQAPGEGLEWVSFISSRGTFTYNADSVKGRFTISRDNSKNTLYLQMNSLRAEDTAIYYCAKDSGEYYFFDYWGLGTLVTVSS
VL: B1 VL
notes: tested as scFv-Fc supernatant
Turning to B12, the “FACs 10 ug/ml (percent gated)” value came out at 74.8% in assay [1] and 20.8% in assay [2]. The “ELISA 1 ug/ml” value turned out to be 1.96 in assay [3], 1.98 in assay [4] and 1.83 in assay [5]. This molecule also gave a Kd in assay [8] of 0.967 nM.

B13: 40566p1.C1 (scFv, V domains shown)
VH: B2 VH
VL: B1 VL with I2T
notes: tested as scFv-Fc supernatant
Regarding B13, the entries for the “FACs 10 ug/ml (percent gated)” value in assay [1] and in assay [2] were 75.3% and 26.4%, respectively. Further, the “ELISA 1 ug/ml” value in assay [3] came to 1.74; in assay [4], 1.92; in assay [5], 1.86. Also, the Kd in assay [7] was determined as 465 nM; in assay [8] it was 0.478 nM.

B14: 40596p1.H7 (scFv, V domains shown)
VH: EVQLLESGGGLVQPGGSLRLSCAASGFDFSTYAMTWVRQAPGKGLEWVAGNGWSGSFTYYADSVKGRFTVSRDNSKNTLYLQMNSLRAEDTAVYYCTRNPGFGEMDVWGQGTTVTVSS
VL: EIVLTQSPGTLRLSPGERATLSCRASQTVGTTLAWYQQKPGQAPRLLIHGASTRATDIPDRFSGSGSGTEFTLTISSLQSEDFADYYCQQYKSWPPLTFGGGTKVEIK
notes: tested as scFv-Fc supernatant
For B14, the “FACs 10 ug/ml (percent gated)” value in assay [1] is 62.8%; in assay [2], 71.7%. Also, the “ELISA 1 ug/ml” value in assay [3] turned out to be 1.89; in assay [4] it was 1.94. For the same molecule, the Kd worked out at 114 nM in assay [6], 86.7 nM in assay [7] and 51.6 nM in assay [8].
